One test addresses Aβ1-42 monomer (human). In words: SPR, Biacore T200; IgG captured on Protein A chip, Aβ1-42 monomer flowed over.
The target of the next test is Aβ1-42 fibrils (human). In words: SPR, Biacore T200; Aβ1-42 fibrils amine-coupled to CM5 chip, antibody flowed over.

pKd: −log10 of the molar value.

Sequence of Aβ1-42 fibrils (human) (peptide, as listed by the source): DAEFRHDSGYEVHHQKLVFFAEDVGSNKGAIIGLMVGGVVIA
Sequence of Aβ1-42 monomer (human) (peptide, as listed by the source): as above

As to Aducanumab (antibody), the pKd is 5.49 in the test with Aβ1-42 monomer (human) and 7.12 in the test with Aβ1-42 fibrils (human).

The values above are taken from patent US20210371506A1.
